How the values were obtained:
MutL (Escherichia coli) = MutL (Escherichia coli) (UniProt P23367); assay: smTIRF; conditions: ATP, no MutS, 10 mM NaCl, 10 nM MutL; single mismatch; smTIRF: 20 mM Tris-HCl pH 7.5, 0.1 mM DTT, 0.2 mg/mL acetylated BSA, 0.0025% P-20, 5 mM MgCl2, 100 mM NaCl (Buffer C), 1 mM ATP or AMP-PNP; NaCl varied …; scale: fraction of DNA molecules with MutL sliding clamp
[1] = target: MutL(R-E) R162E;R266E;R316E (Escherichia coli) (UniProt P23367); assay: smTIRF; conditions: 30 mM NaCl, 2 nM protein; single mismatch; smTIRF: 20 mM Tris-HCl pH 7.5, 0.1 mM DTT, 0.2 mg/mL acetylated BSA, 0.0025% P-20, 5 mM MgCl2, 100 mM NaCl (Buffer C), 1 mM ATP or AMP-PNP; NaCl varied …; scale: fold fewer binding events than wild-type MutL
[2] = test system: MutL(R266E) (Escherichia coli); assay: smTIRF; conditions: 30 mM NaCl, 2 nM protein; single mismatch; smTIRF: 20 mM Tris-HCl pH 7.5, 0.1 mM DTT, 0.2 mg/mL acetylated BSA, 0.0025% P-20, 5 mM MgCl2, 100 mM NaCl (Buffer C), 1 mM ATP or AMP-PNP; NaCl varied …; scale: fold fewer binding events than wild-type MutL
[3] = target: MutS;MutL (Escherichia coli;Escherichia coli) (UniProt P23367); assay: smTIRF; conditions: ATP, 10 nM MutL, single mismatch, smTIRF: 20 mM Tris-HCl pH 7.5, 0.1 mM DTT, 0.2 mg/mL acetylated BSA, 0.0025% P-20, 5 mM MgCl2, 100 mM NaCl (Buffer C), 1 mM ATP or AMP-PNP, NaCl varied …, scale: fraction of DNA molecules with MutL sliding clamp
MutS-bio;MutL = MutS-bio;MutL (Escherichia coli;Escherichia coli, UniProt P23909;P23367 1-853;1-615, |); assay: smTIRF; ATP; immobilized MutS-bio, MutL co-localization lifetime 29 +/- 2 s; smTIRF: 20 mM Tris-HCl pH 7.5, 0.1 mM DTT, 0.2 mg/mL acetylated BSA, 0.0025% P-20, 5 mM MgCl2, 100 mM NaCl (Buffer C), 1 mM ATP or AMP-PNP; NaCl varied 10-100 mM; Mg2+ omitted for MutL-only binding per reviewer comment; temperature not given; conditions: protein: recombinant;recombinant; chain copies: 2;2; label: 5'-biotin on both strands; blunt, single G/T mismatch at position 32 of strand 1

**Q.** Which binding signal (MutL (Escherichia coli)) does the source give for 18.4-kb mismatched DNA here?
**A.** 0.25

**Q.** And the binding signal [1]?
**A.** 30

**Q.** And the binding signal [2]?
**A.** 3

**Q.** What about the binding signal ([3]; loaded at 10 mM NaCl) of the same molecule?
**A.** 0.567

**Q.** And the binding signal ([3]; loaded at 100 mM NaCl)?
**A.** 0.073

B1: 59-bp mismatched DNA (dsDNA)
DNA 1: CGCGGGTTTTCGCTATTTATGAAAATTTTCCGGTTTAAGGCGTTTCCGTTCTTCTTCGT
DNA 2: ACGAAGAAGAACGGAAACGCCTTAAACTGGAAAATTTTCATAAATAGCGAAAACCCGCG
**Q.** Does B1 bind (MutS-bio;MutL)?
**A.** binds

Source: paper PMC9530208, “MutS functions as a clamp loader by positioning MutL on the DNA during mismatch repair”
